Drawing on PMC2683204, this text covers stoichiometry N for one substance.

In this experiment the target is Fluorescein-maleamide labeled purified FN (UniProt P02751). The experiment is described as follows: SDS-PAGE, non-reducing against reducing.

On to “Fluorescein-maleamide labeled purified FN (from UniProt P02751 32-2477) (natural protein)”, for which the stoichiometry N (as a rule, the number of molecules, sites or subunits per partner or assembly) was 2.
